Source: paper PMC4685956

Biological target: H3.2–H4 tetramer (human) (UniProt Q71DI3)
Assay: SEC-MALS

- stoichiometry N (MCM2 HBD per H3–H4 tetramer): 2
Substance: MCM2 HBD(43–160) (from UniProt P49736 43-160) (domain or fragment)
